The values that follow come from patent publication US20250154199A1.

The target in the assay is Slack KNa channel, wildtype (Slack-B subunit), recombinantly expressed in CHO cells. Briefly: cell-based or functional assay.

For the substance “Magi-1 (Membrane-Associated Guanylate Kinase 1), recombinantly expressed in CHO cells”, the membrane currents of Slack-B on co-expression with Magi-1 worked out at 2 fold.
